Data published in publication PMC10193013, “Nonstructural N- and C-tails of Dbp2 confer the protein full helicase activities” (The Journal of Biological Chemistry, 2023).
Where “and” joins values, the source holds several entries; their conditions need not be identical. Identical values can stand only once.

Legend:
[1] = molecular target: T1, Dbp2 (full-length, Dbp2^1-546) (Saccharomyces cerevisiae, UniProt P24783, C168A/C206A/C219A); format: binding; conditions: labelled protein immobilised via C-terminal His-tag antibody; no RNA; MgCl2 2 mM, pH 7.5
T1 construct: full-length 1-546; E. coli C2566H; His6-MBP tag cleaved with TEV, SP ion exchange; the smFRET mutant C141/C373 carries a C-terminal His6 tag

[2] = molecular target: T2, Dbp2 (full-length, Dbp2^1-546) (Saccharomyces cerevisiae, UniProt P24783, R495A/R496A); experiment: ATPase activity assay kit (free phosphate, […] nm); format: biochemical; conditions: 16 bp RNA/DNA duplex 0.75 μM; MgCl2 2 mM, ATP 1.5 mM, pH 7.5, 24 °C; turnover only
T2 construct: full-length 1-546; E. coli C2566H; His6-MBP tag cleaved with TEV, SP ion exchange; the smFRET mutant C141/C373 carries a C-terminal His6 tag

[3] = molecular target: T3, Dbp2 (full-length, Dbp2^1-546) (Saccharomyces cerevisiae, UniProt P24783); experiment: coupled spectrophotometric ATPase assay; format: biochemical; conditions: RNA-dependent: ssRNA R-S22 or RNA/DNA duplex R/D-D16; MgCl2 2 mM, ATP 1.5 mM, pH 7.5, 24 °C; turnover only
T3 construct: full-length 1-546; E. coli C2566H; His6-MBP tag cleaved with TEV, SP ion exchange; the smFRET mutant C141/C373 carries a C-terminal His6 tag

[4] = molecular target: Dbp2 WT (Saccharomyces cerevisiae, UniProt P24783 1-546); experiment: fluorescence anisotropy; Anisotropy: 25 mM Tris-HCl pH 7.5, 20 mM NaCl/30 mM KCl, 2 mM MgCl2, 1 mM DTT, 5 nM labelled nucleic acid, 25 C, 5 min; EMSA: 25 mM Tris-HCl pH 7.5, 30 mM KCl; conditions: protein: recombinant, tags: His6-MBP removed by TEV
[5] = molecular target: Dbp2 53-496 (Saccharomyces cerevisiae, UniProt P24783 53-496); experiment: as above; conditions: protein: recombinant, tags: His6-MBP removed by TEV, label: 3' FAM
[6] = molecular target: Dbp2 1-524 (Saccharomyces cerevisiae, UniProt P24783 1-524); experiment: as above; conditions: protein: recombinant, tags: His6-MBP removed by TEV, label: 3' FAM
[7] = molecular target: T4, MBP-Dbp2 1-52 (Saccharomyces cerevisiae, UniProt P24783 1-52); experiment: as above; conditions: protein: recombinant; tags: MBP fusion; label: 3' FAM; G4
T4 sequence: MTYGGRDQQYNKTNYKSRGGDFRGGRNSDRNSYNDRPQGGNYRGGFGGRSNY

[8] = molecular target: Dbp2 1-530 (Saccharomyces cerevisiae, UniProt P24783 1-530); experiment: as above; conditions: protein: recombinant, tags: His6-MBP removed by TEV, label: 3' FAM
[9] = molecular target: Dbp2 53-546 (Saccharomyces cerevisiae, UniProt P24783 53-546); experiment: as above; conditions: protein: recombinant; tags: His6-MBP removed by TEV; label: 3' FAM; G4
[10] = molecular target: T5, MBP-Dbp2 497-546 (Saccharomyces cerevisiae, UniProt P24783 497-546); experiment: as above; conditions: protein: recombinant; tags: MBP fusion; label: 3' FAM; G4
T5 chain: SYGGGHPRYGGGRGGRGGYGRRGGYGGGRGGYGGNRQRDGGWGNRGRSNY

[11] = molecular target: Dbp2 118-466 (Saccharomyces cerevisiae, UniProt P24783 118-466); experiment: as above; conditions: protein: recombinant, label: 3' FAM
[12] = molecular target: Dbp2 1-514 (Saccharomyces cerevisiae, UniProt P24783 1-514); experiment: as above; conditions: protein: recombinant, tags: His6-MBP removed by TEV, label: 3' FAM
[13] = label: 3' FAM on DNA strand, blunt

Sequence of Dbp2 WT (P24783 whole entry): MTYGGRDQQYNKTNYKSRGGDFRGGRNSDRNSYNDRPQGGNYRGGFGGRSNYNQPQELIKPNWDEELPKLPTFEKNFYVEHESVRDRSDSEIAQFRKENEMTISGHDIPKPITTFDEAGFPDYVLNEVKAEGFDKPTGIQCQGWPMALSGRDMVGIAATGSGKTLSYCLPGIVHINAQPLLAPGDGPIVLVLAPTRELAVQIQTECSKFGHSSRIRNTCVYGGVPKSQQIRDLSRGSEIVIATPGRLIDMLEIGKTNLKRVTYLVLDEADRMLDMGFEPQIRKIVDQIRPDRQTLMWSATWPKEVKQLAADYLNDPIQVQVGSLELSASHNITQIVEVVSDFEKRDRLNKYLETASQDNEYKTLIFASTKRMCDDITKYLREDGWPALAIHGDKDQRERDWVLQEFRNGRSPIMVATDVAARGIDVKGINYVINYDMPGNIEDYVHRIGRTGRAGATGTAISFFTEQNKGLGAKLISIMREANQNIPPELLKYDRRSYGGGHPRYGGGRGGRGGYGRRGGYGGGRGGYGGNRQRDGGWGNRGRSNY
Sequence of Dbp2 118-466 (P24783 118-466): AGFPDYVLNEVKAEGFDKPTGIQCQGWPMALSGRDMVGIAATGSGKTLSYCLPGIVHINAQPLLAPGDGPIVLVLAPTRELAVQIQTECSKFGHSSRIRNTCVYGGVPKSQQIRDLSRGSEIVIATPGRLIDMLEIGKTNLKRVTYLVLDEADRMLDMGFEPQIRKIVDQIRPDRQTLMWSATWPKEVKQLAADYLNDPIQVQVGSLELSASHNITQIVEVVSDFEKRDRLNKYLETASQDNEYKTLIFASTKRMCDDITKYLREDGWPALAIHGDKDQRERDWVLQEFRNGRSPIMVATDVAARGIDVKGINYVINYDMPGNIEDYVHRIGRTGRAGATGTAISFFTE
Sequence of Dbp2 53-496 (P24783 53-496): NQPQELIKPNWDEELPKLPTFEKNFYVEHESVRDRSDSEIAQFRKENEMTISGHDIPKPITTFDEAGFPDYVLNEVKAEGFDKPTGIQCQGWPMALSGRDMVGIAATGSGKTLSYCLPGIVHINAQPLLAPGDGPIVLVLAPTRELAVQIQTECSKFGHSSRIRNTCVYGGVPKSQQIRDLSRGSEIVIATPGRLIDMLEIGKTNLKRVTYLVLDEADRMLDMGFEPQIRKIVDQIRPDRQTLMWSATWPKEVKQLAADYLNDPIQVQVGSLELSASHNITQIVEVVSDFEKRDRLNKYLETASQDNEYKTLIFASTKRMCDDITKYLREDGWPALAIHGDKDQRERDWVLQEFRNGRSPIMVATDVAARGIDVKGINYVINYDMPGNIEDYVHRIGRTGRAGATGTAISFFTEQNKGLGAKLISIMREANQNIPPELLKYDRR
Sequence of Dbp2 1-514 (P24783 1-514): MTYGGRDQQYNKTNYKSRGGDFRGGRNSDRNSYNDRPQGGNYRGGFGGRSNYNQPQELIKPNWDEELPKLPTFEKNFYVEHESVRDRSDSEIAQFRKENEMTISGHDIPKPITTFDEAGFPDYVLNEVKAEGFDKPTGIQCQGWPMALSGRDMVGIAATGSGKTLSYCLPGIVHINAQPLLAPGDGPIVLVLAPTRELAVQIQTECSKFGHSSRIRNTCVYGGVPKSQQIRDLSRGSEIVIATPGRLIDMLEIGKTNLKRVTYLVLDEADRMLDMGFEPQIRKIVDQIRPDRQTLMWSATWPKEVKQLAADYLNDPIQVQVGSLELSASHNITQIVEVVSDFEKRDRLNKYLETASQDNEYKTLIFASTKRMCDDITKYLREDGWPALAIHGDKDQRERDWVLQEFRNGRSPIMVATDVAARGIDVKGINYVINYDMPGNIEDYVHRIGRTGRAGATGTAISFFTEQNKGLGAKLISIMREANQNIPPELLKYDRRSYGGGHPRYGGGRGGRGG
T2 sequence (P24783 whole entry R495A/R496A): as the sequence (P24783 whole entry) above, with R495A, R496A counted along it
Sequence of Dbp2 53-546 (P24783 53-546): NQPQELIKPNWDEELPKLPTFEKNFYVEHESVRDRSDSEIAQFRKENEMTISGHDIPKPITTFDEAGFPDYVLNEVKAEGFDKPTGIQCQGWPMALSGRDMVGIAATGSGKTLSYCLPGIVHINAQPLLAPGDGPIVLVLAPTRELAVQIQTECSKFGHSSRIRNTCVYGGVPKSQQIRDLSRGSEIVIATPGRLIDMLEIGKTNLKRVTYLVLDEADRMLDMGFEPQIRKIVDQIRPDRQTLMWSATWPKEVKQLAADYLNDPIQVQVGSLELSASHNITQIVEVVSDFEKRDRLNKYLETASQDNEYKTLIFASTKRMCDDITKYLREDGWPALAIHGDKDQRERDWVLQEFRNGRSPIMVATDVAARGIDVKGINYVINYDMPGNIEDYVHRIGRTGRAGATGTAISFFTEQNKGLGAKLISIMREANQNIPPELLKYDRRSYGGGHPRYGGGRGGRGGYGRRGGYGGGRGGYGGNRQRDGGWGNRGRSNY
T1 sequence (P24783 whole entry C168A/C206A/C219A): as the sequence (P24783 whole entry) above, with C168A, C206A, C219A counted along it

Nc1ncnc2c1ncn2[C@@H]1O[C@H](COP(=O)(O)OP(=O)(O)O)[C@@H](O)[C@H]1O [ADP]
single-molecule FRET, Cy3/Cy5 on C141 and C373 [1]: The FRET distribution of Dbp2-ADP was similar to that of Dbp2-ADP·AlF4 except for a decrease

Nc1ncnc2c1ncn2[C@@H]1O[C@H](COP(=O)(O)OP(=O)(O)OP(=O)(O)O)[C@@H](O)[C@H]1O [ATP]
ATPase activity assay kit (free phosphate, 620 nm) [2]: the R495A/R496A double mutant also showed increased ATPase activity in vitro
coupled spectrophotometric ATPase assay [3]: The RNA-dependent ATPase activities of Dbp2 were measured using a coupled spectrophotometric ATPase assay

B1: R/D-D16 (DNA:RNA)
RNA: GAUCGUGACAUCCUUA
DNA: TAAGGATGTCACGATC
Kd [4, 13]: 40.6 ± 4.65 nM

B2: R/D-D12 (DNA:RNA)
RNA: CGUCGAGCAGAG
DNA: CTCTGCTCGACG
Kd [4, 13]: 73.9 ± 3.93 nM

GGGUUAGGGUUAGGGUUAGGG (structured_RNA) [R-G4Tel]
binding result ([5]; G4): no binding
Kd ([6]; G4): 27.9 ± 2.66 nM
Kd [7]: 26 ± 1.5 nM
Kd ([8]; G4): 19.2 ± 2.17 nM
Kd [9]: 18.8 ± 0.56 nM
Kd [10]: 36.3 ± 5.1 nM
binding result ([11]; G4): no binding
Kd ([4]; label: 3' FAM, G4): 12.2 nM and 12.7 nM
Kd ([12]; G4): 63.5 ± 8.45 nM

CUCUGCUCGACG (ssRNA) [R-S12]
Kd ([4]; label: 3' FAM): 72.1 ± 5.09 nM

ACGGATGTCTAA (ssDNA) [D-S12]
Kd ([4]; label: 3' FAM): 105 ± 1.9 nM

B3: D-D12 (dsDNA)
DNA 1: CGTCGAGCAGAG
DNA 2: CTCTGCTCGACG
Kd ([4]; label: 3' FAM on strand 2, blunt): 178 ± 6.2 nM

UUUUUUUUUUCUCUGCUCGACG (ssRNA) [R-S22]
binding result [5]: no binding
Kd [6]: 38.8 ± 4.35 nM
Kd [8]: 33.7 ± 6.63 nM
binding result [11]: no binding
Kd ([4]; label: 3' FAM): 15.8 ± 0.66 nM
Kd [12]: 214 ± 18.4 nM
